Data on one molecule can be found in patent publication US20040106134A1 (Regeneron, published 2004).

In assay [1] the target is T1, human BMP-11 (human, UniProt O95390 299-407, limits assumed, 35S-labelled).
T1 construct: Provided as 35S-labelled protein expressed in X. laevis oocytes; also called human GDF-11; GDF-11
T1 sequence (looked up): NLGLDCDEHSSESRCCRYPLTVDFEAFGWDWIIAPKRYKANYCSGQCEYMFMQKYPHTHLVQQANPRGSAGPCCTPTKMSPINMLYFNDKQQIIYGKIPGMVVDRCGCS
The assay can be described thus: co-immunoprecipitation with anti-myc 9E10 beads, 35S-labelled BMP-11. Here is the method: (§1) Human DCR5-myc3 (1 ml of COS7 cell-derived serum-free conditioned media described supra) was co-incubated with human BMP-2 (1 μg/ml), or human BMP-4 (0.5 μg/1 ml) (R&D Systems), or human BMP-5 ([…]) (R&D Systems), or mouse Nodal (also known as mBMP-16; provided as ³⁵S-mouse Nodal expressed in X. laevis oocytes), or human BMP-11 (also known as human GDF-11; provided as ³⁵S-human BMP-11 expressed in X. laevis oocytes), in the absence or in the presence of human noggin protein hNGAB2 (described in published PCT application publication no. WO 99/03996, published Jan. 28, 1999, and incorporated in its entirety herein by reference), 2 to 5 μg/ml. The formation of a stable complex between human DCR5-myc3 and the different BMP family members was determined by immunoprecipitating human DCR5-myc3 and associated proteins using the anti-myc monoclonal antibody (9E10; 1 μg/ml) bound to Protein A Ultralink (Pierce). The binding reaction was carried out in the serum-free conditioned media containing 20 mM Tris pH 7.6, 150 mM NaCl, 0.1% Tween 20 (TBST), and 1 mg/ml bovine serum albumin (BSA). Binding was allowed to proceed for 1 hour at 25° C. in a reaction volume of 1.1 ml, with continuous mixing to keep the Protein A-Ultralink (Pierce) in suspension. […]

Assay [2] has as its target T2, human BMP-5 (human, UniProt P22003 317-454, limits assumed).
T2 construct: Bought from R&D Systems
T2 sequence (looked up): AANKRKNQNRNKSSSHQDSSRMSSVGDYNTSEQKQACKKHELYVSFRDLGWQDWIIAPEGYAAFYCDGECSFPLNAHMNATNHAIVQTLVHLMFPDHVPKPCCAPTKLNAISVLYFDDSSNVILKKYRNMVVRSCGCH
The assay can be described thus: co-immunoprecipitation with anti-myc 9E10 beads, western blot. Here is the method:
as §1
(In general: In western blotting, separated proteins are transferred to a membrane and probed.)

The target in assay [3] is T3, mouse Nodal (mouse, UniProt P43021 245-354, limits assumed, 35S-labelled).
T3 construct: Provided as 35S-labelled protein expressed in X. laevis oocytes; also called mBMP-16; 35S-mouse Nodal
T3 sequence (looked up): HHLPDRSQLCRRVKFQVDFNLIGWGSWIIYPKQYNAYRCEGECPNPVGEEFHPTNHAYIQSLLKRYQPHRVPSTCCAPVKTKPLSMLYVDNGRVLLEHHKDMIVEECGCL
The assay can be described thus: co-immunoprecipitation with anti-myc 9E10 beads, 35S-labelled Nodal. How it is done:
as §1

B1: human DCR5-myc3 (other)
chain: RKNRPAGAIPSPYKDGSSNNSERWQHQIKEVLASSQEALVVTERKYLKSDWCKTQPLRQTVSEEGCRSRTILNRFCYGQCNSFYIPRHVKKEEESFQSCAFCKPQRVTSVLVELECPGLDPPFRLKKIQKVKQCRCMSVNLSDSDKQTGEQKLISEEDLGGEQKLISEEDLGGEQKLISEEDLGP
notes: Used as serum-free conditioned medium of transiently transfected COS7 cells; also called Human DCR5-myc3 protein; hDCR-5
B1: the figures for the binding result in assay [1], in assay [2] and in assay [3] were “no binding”, “no binding (tested: 1 g/ml (so in the source))” and “no binding”, respectively.
